From patent US20250011363A1, “OPTIMIZED SHORTENED PEPTIDE THAT BINDS TO ACETYLCHOLINE RECEPTOR, AND USE THEREOF” (SKINMED CO., LTD., priority 2021, published 2025)

Biological target: acetylcholine receptor
Test: SPR, acetylcholine receptor immobilized on CM5 chip, peptide at 10 uM

| Binding affinity (RU) | Binder |
| --- | --- |
| 16 | RKNEK [5mer-1200] |
| 29 | RHSVK [5mer-900] |
| 29 | KNNNR [5mer-1199] |
| 31 | RYTFR [5mer-899] |

Biological target: acetylcholine receptor
Test: SPR, acetylcholine receptor on CM5 chip, peptide 10 µM

| Binder | Binding affinity (RU) |
| --- | --- |
| KQVYRK [6mer-2-564] | 148 |
| KGVSRR [6mer-2-576] | 139 |
| RWQTRK [6mer-2-582] | 148 |
| RWQYRK [6mer-2-579] | 135 |
| RGYSRK [6mer-2-575] | 139 |
| KRVQRR [6mer-2-577] | 139 |
| KWQQRR [6mer-2-580] | 121 |
| RVYYKR [6mer-2-570] | 148 |
| KSVCKK [6mer-2-558] | 154 |
| KGYQKR [6mer-2-563] | 131 |
| KGFQKK [6mer-2-568] | 142 |
| RWQLRK [6mer-2-569] | 135 |
| KRLSKK [6mer-2-566] | 139 |
| KLYLRR [6mer-2-573] | 121 |
| RRVLKK [6mer-2-561] | 142 |
| KSVTKK [6mer-2-583] | 154 |
| RSFRRK [6mer-2-585] | 136 |
| RQQRKR [6mer-2-562] | 136 |
| KSQRRK [6mer-2-572] | 148 |
| KGVYRK [6mer-2-574] | 153 |
| RVQQKR [6mer-2-581] | 139 |
| RSVLRK [6mer-2-578] | 135 |
| KRLTRK [6mer-2-584] | 148 |
| RQYTRR [6mer-2-560] | 153 |
| KSRRRR [6mer-2-565] | 147 |
| KGQLRR [6mer-2-559] | 121 |
| KWVLRK [6mer-2-557] | 123 |
| KLYYRK [6mer-2-567] | 146 |
| RGYQRR [6mer-2-571] | 135 |

Other lines, results leading:

| Binding affinity (RU) | Binder |
| --- | --- |
| 153 | RWQQRK [6mer-2-589] |
| 121 | RRRYRK [6mer-2-599] |
| 122 | RWVLRK [6mer-2-592] |
| 154 | KQFLRK [6mer-2-597] |
| 148 | KRISKR [6mer-2-587] |
| 148 | KGRLRK [6mer-2-590] |
| 154 | KLRCKK [6mer-2-595] |
| 149 | KWFYKK [6mer-2-588] |
| 139 | RSQLKK [6mer-2-600] |
| 139 | RWYRRR [6mer-2-594] |
| 146 | KVFRRR [6mer-2-598] |
| 153 | KGIQKK [6mer-2-596] |
| 139 | RSQLKR [6mer-2-593] |
| 146 | KGILRR [6mer-2-591] |
| 121 | RWLSRK [6mer-2-586] |

Biological target: acetylcholine receptor
Test: SPR, acetylcholine receptor immobilized on chip, peptide at 10 uM

| Binding affinity (RU) | Binder |
| --- | --- |
| 81 | RQYRK [5mer-300] |
| 61 | KWVSR [5mer-599] |
| 62 | KGRRK [5mer-299] |
| 64 | KLYSK [5mer-600] |

Biological target: acetylcholine receptor protein
Test: SPR, affinity against the reference Synake

| fold higher affinity compared to Synake [times] | Binder |
| --- | --- |
| 40 | RKSLLR [Espep2-6mer] |

Biological target: acetylcholine receptor protein
Test: SPR, receptor on CM5 chip, method of Example 1 (FIG. 3)

| RU value [RU] | Binder |
| --- | --- |
| 177 | RKSLLR [Espep2-6mer] |

Biological target: acetylcholine receptor
Test: SPR, peptide at 10 uM on immobilised AchR

| Binding affinity (RU) | Binder |
| --- | --- |
| 548 | RKRIRR [6mer-1-43] |

Biological target: acetylcholine receptor protein
Test: SPR, concentration series (FIG. 9); given as 'affinity'

| Kd [µM] | Binder |
| --- | --- |
| 0.609 | RKRIRR [6mer-1-43] |

Biological target: acetylcholine receptor
Test: SPR, AchR immobilized on chip

| Binding affinity (RU) | Binder |
| --- | --- |
| 548 | RKRIRR [6mer-1-43] |

Biological target: acetylcholine receptor protein
Test: SPR (Biacore 3000), receptor immobilised on CM5 chip, peptide in solution; given as 'affinity'

| Kd [µM] | Binder |
| --- | --- |
| 57 | RKSLLR [Espep2-6mer] |
